# According to patent US20200171163A1 (Daiichi Sankyo, published 2020):
# T1: cynomolgus monkey CDH6 (on cells) (cynomolgus monkey, UniProt P55285 54-790 (human entry))
# T1 construct: Expressed from pcDNA3.1-cynoCDH6; also called cynoCDH6
# T1 sequence: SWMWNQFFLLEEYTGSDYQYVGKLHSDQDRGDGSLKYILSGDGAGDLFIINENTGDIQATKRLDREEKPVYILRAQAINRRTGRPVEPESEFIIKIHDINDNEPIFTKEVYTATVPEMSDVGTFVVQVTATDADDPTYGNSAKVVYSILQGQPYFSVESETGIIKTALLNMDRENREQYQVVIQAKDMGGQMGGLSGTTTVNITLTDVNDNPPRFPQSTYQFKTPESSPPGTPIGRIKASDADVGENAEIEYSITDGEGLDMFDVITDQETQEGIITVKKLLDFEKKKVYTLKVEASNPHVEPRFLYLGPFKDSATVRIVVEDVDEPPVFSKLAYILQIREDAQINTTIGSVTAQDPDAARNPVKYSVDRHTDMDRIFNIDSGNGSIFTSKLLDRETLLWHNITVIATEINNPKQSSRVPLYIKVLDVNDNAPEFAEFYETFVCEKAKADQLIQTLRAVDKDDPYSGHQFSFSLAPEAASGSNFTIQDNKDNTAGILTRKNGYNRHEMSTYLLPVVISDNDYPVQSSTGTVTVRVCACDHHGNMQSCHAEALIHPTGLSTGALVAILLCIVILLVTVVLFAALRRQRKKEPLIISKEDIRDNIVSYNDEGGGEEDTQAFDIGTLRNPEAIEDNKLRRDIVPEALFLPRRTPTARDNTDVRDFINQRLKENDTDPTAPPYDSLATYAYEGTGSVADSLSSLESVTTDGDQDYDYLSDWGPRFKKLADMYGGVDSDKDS
# T2: human CDH6 (full-length, on cells) (human, UniProt P55285 54-790)
# T2 construct: also called hCDH6; full-length hCDH6
# T2 sequence: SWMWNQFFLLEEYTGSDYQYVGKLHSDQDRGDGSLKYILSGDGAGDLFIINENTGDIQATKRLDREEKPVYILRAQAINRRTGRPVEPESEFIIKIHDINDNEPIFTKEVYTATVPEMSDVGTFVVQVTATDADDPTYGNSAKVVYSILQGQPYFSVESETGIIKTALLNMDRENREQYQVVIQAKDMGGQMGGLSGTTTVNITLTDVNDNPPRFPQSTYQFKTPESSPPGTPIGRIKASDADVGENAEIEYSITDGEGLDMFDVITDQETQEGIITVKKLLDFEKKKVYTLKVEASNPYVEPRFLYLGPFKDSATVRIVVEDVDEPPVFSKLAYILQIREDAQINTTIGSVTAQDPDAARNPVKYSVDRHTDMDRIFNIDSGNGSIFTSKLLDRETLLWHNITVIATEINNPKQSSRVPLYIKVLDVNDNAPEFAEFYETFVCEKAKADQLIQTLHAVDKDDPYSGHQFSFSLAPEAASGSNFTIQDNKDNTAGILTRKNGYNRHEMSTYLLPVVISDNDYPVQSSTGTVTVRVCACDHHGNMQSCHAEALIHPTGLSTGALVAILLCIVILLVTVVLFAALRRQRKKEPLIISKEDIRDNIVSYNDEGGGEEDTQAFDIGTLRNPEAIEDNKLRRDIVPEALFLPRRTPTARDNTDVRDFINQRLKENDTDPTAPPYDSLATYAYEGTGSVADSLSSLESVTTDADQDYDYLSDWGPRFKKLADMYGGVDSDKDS
# T3: EC5 deletion mutant of human CDH6 (human, UniProt P55285 54-790)
# T3 construct: In p3×FLAG-CMV-9; also called EC5-deleted hCDH6
# T3 sequence: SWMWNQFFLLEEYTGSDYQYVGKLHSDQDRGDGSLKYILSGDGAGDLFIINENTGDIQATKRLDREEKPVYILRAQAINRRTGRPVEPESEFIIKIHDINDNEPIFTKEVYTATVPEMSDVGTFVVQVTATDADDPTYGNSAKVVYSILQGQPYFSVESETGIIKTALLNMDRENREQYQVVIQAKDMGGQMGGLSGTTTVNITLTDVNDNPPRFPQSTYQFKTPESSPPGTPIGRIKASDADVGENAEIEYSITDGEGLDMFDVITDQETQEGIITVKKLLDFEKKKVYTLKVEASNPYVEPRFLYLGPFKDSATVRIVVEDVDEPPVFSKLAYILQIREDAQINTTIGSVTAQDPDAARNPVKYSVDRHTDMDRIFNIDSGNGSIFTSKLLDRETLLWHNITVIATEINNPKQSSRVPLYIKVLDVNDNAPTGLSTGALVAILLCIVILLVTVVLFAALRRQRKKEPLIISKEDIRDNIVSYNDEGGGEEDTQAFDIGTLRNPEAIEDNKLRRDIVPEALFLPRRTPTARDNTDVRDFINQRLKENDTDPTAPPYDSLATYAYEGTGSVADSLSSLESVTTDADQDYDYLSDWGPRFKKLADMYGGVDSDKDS
# Columns and labels:
# [1] = target: T1, cynomolgus monkey CDH6 (on cells); assay: flow cytometry, MFI vs antibody concentration; 293α cells transfected with pcDNA3.1-cynoCDH6; PE anti-human IgG Fcγ
# Experimental: (§1) The CDH6-binding activity of the human chimeric anti-CDH6 antibody chG019 purified in 4)-2 was confirmed by flow cytometry. […] The cells were cultured overnight under conditions of 37° C. and 5% CO₂, and thereafter, a cell suspension was prepared. chG019 was added to the suspension of each of these cells. The cells were left standing at 4° C. for 1 hour. Thereafter, the cells were washed twice with PBS supplemented with 5% FBS, and then suspended by the addition of PE-labeled F(ab′)2 Fragment anti-human IgG, Fcγ antibody (Jackson ImmunoResearch Laboratories, Inc.) that had been 500-fold diluted with PBS supplemented with 5% FBS. The cells were left standing at 4° C. for 1 hour. The cells were washed twice with PBS supplemented with 5% FBS, and then re-suspended in PBS supplemented with 5% FBS, followed by detection using a flow cytometer (Canto II; BD Biosciences). The data was analyzed using FlowJo (Tree Star, Inc.). […] In FIG. 5, the abscissa depicts antibody concentration, and the ordinate depicts the amount of the antibody bound, based on mean fluorescence intensity.
# [2] = target: T2, human CDH6 (full-length, on cells); assay: flow cytometry, MFI vs antibody concentration; 293α cells transfected with pcDNA3.1-hCDH6; PE anti-human IgG Fcγ
# Experimental: as §1
# [3] = target: T2, human CDH6 (full-length, on cells); assay: flow cytometry; 293α cells transfected with full-length hCDH6 (open) vs untransfected control cells (shaded); APC anti-human IgG
# Experimental: The cells were cultured overnight under conditions of 37° C. and 5% CO₂, and thereafter, a cell suspension was prepared. […] Thereafter, the cells were suspended by the addition of each of the 4 humanized hG019 antibodies (clone Nos: H01L02, H02L02, H02L03 and H04L02), which had been prepared in Example 5)-5-3, or the anti-CDH6 antibody NOV0712, which had been prepared in Reference Example 1, or human IgG1 (Calbiochem) as a negative control. The cells were left standing at 4° C. for 1 hour. The cells were washed twice with PBS supplemented with 5% FBS, and then suspended by the addition of APC-anti-human IgG goat F(ab′)2 (Jackson ImmunoResearch Laboratories, Inc.) that had been 500-fold diluted with PBS supplemented with 5% FBS. The cells were left standing at 4° C. for 1 hour. The cells were washed twice with PBS supplemented with 5% FBS, followed by detection using a flow cytometer (Canto II; BD Biosciences). The data was analyzed using FlowJo (Tree Star, Inc.). In the histograms of FIGS. 7-1 to 7-6, the abscissa depicts APC fluorescence intensity indicating the amount of the antibody bound, and the ordinate depicts cell count. […] Fluorescence intensity is enhanced when the antibody binds to full-length hCDH6 or each EC domain deletion mutant on cell surface. The human IgG1 control binds to none of the transfected cells.
# [4] = target: T3, EC5 deletion mutant of human CDH6; assay: flow cytometry; 293α cells transfected with EC5-deleted hCDH6 (open) vs untransfected control cells (shaded); APC anti-human IgG
# Experimental: Thereafter, the cells were suspended by the addition of each of the 4 humanized hG019 antibodies (clone Nos: H01L02, H02L02, H02L03 and H04L02), which had been prepared in Example 5)-5-3, or the anti-CDH6 antibody NOV0712, which had been prepared in Reference Example 1, or human IgG1 (Calbiochem) as a negative control. The cells were left standing at 4° C. for 1 hour. The cells were washed twice with PBS supplemented with 5% FBS, and then suspended by the addition of APC-anti-human IgG goat F(ab′)2 (Jackson ImmunoResearch Laboratories, Inc.) that had been 500-fold diluted with PBS supplemented with 5% FBS. The cells were left standing at 4° C. for 1 hour. The cells were washed twice with PBS supplemented with 5% FBS, followed by detection using a flow cytometer (Canto II; BD Biosciences). The data was analyzed using FlowJo (Tree Star, Inc.). In the histograms of FIGS. 7-1 to 7-6, the abscissa depicts APC fluorescence intensity indicating the amount of the antibody bound, and the ordinate depicts cell count. […] Fluorescence intensity is enhanced when the antibody binds to full-length hCDH6 or each EC domain deletion mutant on cell surface. The human IgG1 control binds to none of the transfected cells.
Binder,EC50 (read off the curve) [1],EC50 (read off the curve) [2],binding result [3],binding result [4]
"human chimeric anti-CDH6 antibody chG019 (antibody, human IgG1, Human IgG1/kappa chimera; also called chG019 antibody; chimeric G019 antibody) heavy: not shown light: DIQMTQSPSLLSASVGDRVTLNCKASQNIYKNLAWYQQKLGEGPKLLIYDANTLQTGIPSRFSGSGSGSDFTLTISSLQPEDVATYFCQQYYSGWAFGGVTNLELKRAVAAPSVFIFPPSDEQLKSGTASVVCLLNNFYPREAKVQWKVDNALQSGNSQESVTEQDSKDSTYSLSSTLTLSKADYEKHKVYACEVTHQGLSSPVTKSFNRGEC",~0.01 µg/mL,~0.01 µg/mL,,
"anti-CDH6 antibody NOV0712 (antibody, V domains shown, also called NOV0712 antibody; labeled NOV0712) VH: QVQLLESGGGLVQPGGSLRLSCAASGFTFSSHGMHWVRQAPGKGLEWVSVISGSGSNTGYADSVKGRFTISRDNSKNTLYLQMNSLRAEDTAVYYCARQWGSYAFDSWGQGTLVTVSS VL: DIQMTQSPSSLSASVGDRVTITCRASQSISSYLNWYQQKPGKAPKLLIYAVSTLQSGVPSRFSGSGSGTDFTLTISSLQPEDFATYYCQQSGTFPPTTFGQGTKVEIKR",,,binds,no binding (tested: not given (single concentration))
